According to patent US20090192084A1:

Experiments:
[1] = biological target: Retinoblastoma-associated factor 600, UBR4 (human) (UniProt Q5T4S7); test: Flag co-IP, MudPIT MS, DMSO
[2] = biological target: UBR2 (human) (UniProt Q8IWV8); test: Flag co-IP, MudPIT MS, DMSO
[3] = biological target: gp78 (human) (UniProt Q9UKV5); test: Flag co-IP, MudPIT MS, DMSO
[4] = biological target: Praja 2 (human) (UniProt O43164); test: Flag co-IP, MudPIT MS, DMSO
[5] = biological target: Kelch-like protein 22. KLEIL22 (human) (UniProt Q53GT1); test: Flag co-IP, MudPIT MS, DMSO
Chain of Kelch-like protein 22. KLEIL22 (human) (Q53GT1 2-634 limits assumed): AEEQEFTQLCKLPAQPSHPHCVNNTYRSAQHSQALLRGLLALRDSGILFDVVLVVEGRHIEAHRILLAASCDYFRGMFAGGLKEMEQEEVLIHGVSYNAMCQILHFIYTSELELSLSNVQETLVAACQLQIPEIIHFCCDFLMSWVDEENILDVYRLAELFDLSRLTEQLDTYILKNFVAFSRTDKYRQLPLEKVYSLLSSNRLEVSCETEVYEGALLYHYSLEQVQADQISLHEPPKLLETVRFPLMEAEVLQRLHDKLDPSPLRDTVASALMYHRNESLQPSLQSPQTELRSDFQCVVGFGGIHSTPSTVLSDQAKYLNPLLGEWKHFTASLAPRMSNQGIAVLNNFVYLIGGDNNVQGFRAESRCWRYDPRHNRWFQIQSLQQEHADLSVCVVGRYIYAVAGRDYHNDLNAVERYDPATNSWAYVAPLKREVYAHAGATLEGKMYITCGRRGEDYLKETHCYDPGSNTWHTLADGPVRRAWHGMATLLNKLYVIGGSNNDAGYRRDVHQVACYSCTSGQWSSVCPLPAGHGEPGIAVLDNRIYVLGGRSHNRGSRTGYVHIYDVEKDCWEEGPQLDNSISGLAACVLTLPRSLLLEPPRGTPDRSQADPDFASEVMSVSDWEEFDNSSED

[6] = biological target: Kelch repeat and BTB domain-containing protein 7, KBTB7 (human) (UniProt Q8WVZ9); test: Flag co-IP, MudPIT MS, DMSO
[7] = biological target: UBR1 (human) (UniProt Q8IWV7); test: Flag co-IP, MudPIT MS, DMSO
[8] = biological target: SKP1 (human) (UniProt P63208); test: Flag co-IP, MudPIT MS, DMSO
Chain of SKP1 (human) (P63208 2-163 limits assumed): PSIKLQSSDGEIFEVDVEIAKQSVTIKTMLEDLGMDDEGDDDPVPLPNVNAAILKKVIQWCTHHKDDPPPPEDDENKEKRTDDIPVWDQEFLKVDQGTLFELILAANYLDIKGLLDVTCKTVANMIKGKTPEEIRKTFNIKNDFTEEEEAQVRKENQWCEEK

[9] = biological target: Cullin 1 (human) (UniProt Q13616); test: Flag co-IP, MudPIT MS, DMSO
Chain of Cullin 1 (human) (Q13616 whole entry): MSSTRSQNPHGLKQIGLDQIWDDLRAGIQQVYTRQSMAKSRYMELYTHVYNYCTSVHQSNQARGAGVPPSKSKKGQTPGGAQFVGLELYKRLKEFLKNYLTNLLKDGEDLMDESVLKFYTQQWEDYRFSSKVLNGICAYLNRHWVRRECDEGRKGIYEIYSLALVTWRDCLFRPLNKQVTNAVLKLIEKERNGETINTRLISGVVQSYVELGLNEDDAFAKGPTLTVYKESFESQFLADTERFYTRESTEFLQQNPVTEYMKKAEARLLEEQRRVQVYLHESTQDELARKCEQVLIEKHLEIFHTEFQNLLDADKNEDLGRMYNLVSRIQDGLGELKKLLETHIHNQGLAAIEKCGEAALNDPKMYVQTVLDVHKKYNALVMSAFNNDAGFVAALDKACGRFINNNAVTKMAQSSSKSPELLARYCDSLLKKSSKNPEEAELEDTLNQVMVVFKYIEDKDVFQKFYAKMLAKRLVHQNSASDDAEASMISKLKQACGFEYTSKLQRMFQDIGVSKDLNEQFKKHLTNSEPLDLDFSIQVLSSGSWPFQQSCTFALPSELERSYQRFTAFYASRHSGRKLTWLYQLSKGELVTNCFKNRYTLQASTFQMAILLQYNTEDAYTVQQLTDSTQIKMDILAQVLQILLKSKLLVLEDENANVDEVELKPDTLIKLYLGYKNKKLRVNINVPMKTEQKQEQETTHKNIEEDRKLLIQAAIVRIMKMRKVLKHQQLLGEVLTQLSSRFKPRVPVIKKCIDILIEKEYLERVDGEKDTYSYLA

[10] = biological target: Cullin 3 (human) (UniProt Q13618); test: Flag co-IP, MudPIT MS, DMSO
[11] = biological target: Retinoblastoma-associated factor 600, UBR4 (human) (UniProt Q5T4S7); test: Flag co-IP, MudPIT MS, MG132
[12] = biological target: UBR2 (human) (UniProt Q8IWV8); test: Flag co-IP, MudPIT MS, MG132
[13] = biological target: CUL4- and DDB I-associated WDR protein 2, WDR26 (human) (UniProt Q9H7D7); test: Flag co-IP, MudPIT MS, MG132
[14] = biological target: gp78 (human) (UniProt Q9UKV5); test: Flag co-IP, MudPIT MS, MG132
[15] = biological target: F-box//WD-repeat protein 1B, FBW1B (human) (UniProt Q9UKB1); test: Flag co-IP, MudPIT MS, MG132
Chain of F-box//WD-repeat protein 1B, FBW1B (human) (Q9UKB1 whole entry): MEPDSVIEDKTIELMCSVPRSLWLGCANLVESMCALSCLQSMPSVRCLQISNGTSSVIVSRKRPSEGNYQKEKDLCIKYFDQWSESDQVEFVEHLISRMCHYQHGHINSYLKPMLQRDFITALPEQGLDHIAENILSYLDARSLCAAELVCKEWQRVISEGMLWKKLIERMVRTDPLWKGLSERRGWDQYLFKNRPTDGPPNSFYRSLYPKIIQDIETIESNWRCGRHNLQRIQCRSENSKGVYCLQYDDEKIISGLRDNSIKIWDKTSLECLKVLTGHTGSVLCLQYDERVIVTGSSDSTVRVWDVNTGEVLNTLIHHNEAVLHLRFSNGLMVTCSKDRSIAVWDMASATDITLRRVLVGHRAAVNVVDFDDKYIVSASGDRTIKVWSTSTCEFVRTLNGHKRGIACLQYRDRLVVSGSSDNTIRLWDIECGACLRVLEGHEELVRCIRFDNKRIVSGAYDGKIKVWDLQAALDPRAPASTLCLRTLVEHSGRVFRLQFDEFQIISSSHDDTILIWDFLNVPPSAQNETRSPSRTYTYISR

[16] = biological target: Cullin 2 (human) (UniProt Q13617); test: Flag co-IP, MudPIT MS, MG132
Chain of Cullin 2 (human) (Q13617 whole entry): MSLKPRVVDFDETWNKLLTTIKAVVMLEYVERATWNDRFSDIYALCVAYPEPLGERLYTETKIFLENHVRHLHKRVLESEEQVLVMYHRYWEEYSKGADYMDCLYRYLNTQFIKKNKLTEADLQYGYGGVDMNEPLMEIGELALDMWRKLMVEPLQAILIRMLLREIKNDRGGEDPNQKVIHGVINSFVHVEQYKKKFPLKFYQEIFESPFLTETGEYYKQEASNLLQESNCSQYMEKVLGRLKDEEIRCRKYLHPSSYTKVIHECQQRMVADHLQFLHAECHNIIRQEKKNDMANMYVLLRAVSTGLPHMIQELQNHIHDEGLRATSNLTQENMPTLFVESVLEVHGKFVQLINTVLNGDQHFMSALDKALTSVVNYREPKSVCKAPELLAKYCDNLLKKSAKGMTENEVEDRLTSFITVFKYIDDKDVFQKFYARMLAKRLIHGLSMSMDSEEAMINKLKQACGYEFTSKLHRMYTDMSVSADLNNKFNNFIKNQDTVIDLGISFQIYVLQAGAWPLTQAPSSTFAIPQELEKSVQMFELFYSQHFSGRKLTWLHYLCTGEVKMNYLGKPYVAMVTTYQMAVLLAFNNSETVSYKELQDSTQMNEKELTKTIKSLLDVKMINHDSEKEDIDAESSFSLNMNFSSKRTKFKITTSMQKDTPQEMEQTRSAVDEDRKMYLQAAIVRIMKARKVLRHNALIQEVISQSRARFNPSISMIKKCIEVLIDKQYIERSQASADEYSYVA

[17] = biological target: Kelch-like protein 22. KLEIL22 (human) (UniProt Q53GT1); test: Flag co-IP, MudPIT MS, MG132
[18] = biological target: SKP1 (human) (UniProt P63208); test: Flag co-IP, MudPIT MS, MG132
[19] = biological target: Cullin 1 (human) (UniProt Q13616); test: Flag co-IP, MudPIT MS, MG132
[20] = biological target: Cullin 3 (human) (UniProt Q13618); test: Flag co-IP, MudPIT MS, MG132
[21] = biological target: PLAP (human) (UniProt Q9Y263); test: Flag co-IP, 293 cells, MudPIT MS
Chain of PLAP (human) (Q9Y263 whole entry): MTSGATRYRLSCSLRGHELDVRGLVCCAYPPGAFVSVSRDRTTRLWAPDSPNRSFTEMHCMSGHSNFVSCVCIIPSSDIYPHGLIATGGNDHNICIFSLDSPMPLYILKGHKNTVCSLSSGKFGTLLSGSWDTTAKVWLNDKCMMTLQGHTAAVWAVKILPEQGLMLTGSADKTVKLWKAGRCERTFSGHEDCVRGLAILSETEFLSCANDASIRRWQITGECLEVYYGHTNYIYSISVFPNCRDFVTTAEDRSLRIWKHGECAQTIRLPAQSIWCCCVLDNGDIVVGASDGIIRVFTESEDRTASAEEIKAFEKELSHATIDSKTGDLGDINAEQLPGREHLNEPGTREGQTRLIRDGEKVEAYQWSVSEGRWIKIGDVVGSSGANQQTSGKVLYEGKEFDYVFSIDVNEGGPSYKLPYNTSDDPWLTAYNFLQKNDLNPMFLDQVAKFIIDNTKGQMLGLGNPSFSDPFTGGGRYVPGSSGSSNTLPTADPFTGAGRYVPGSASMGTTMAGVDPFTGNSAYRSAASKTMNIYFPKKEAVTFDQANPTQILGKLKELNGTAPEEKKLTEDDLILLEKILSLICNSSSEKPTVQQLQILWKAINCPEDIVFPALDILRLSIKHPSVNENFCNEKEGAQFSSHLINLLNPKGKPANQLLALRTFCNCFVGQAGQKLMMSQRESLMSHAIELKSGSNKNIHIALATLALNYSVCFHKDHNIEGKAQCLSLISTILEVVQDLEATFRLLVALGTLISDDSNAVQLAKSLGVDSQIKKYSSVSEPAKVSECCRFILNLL

[22] = biological target: T1, VCIP135 (human) (UniProt Q96JH7); test: Flag co-IP, 293 cells, MudPIT MS
T1 sequence (looked up): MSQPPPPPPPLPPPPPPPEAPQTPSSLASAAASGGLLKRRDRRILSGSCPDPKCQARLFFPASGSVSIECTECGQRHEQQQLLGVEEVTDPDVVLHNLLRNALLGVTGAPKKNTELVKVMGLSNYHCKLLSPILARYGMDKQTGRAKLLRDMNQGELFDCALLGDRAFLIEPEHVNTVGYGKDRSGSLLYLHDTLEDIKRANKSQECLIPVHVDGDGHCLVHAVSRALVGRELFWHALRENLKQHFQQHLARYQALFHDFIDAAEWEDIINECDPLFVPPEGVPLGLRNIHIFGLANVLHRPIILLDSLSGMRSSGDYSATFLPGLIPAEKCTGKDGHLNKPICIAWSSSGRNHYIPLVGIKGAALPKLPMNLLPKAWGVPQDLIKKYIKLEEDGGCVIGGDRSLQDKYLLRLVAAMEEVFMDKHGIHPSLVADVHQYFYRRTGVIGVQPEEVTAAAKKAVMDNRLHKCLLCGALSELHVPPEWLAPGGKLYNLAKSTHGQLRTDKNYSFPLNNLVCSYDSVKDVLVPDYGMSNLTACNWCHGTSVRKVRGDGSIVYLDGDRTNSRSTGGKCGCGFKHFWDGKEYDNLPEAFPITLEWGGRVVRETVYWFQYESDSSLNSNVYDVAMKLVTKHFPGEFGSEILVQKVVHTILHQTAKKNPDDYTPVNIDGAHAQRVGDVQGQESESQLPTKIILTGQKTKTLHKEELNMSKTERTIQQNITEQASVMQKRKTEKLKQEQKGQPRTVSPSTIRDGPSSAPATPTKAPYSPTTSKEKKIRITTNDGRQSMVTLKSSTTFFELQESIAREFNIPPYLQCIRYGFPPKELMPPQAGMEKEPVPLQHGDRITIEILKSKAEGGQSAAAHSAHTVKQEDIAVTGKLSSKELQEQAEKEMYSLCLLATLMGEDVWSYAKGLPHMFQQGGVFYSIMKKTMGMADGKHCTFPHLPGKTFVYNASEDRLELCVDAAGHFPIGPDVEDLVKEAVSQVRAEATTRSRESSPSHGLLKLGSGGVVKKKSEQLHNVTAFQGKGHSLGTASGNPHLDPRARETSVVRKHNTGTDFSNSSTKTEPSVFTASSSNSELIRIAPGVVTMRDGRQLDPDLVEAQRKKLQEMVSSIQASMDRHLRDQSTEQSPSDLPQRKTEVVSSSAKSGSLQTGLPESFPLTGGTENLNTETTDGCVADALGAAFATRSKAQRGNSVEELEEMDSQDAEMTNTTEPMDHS

[23] = biological target: endogenous NPL4 (human) (UniProt Q8TAT6); test: Flag co-IP, 293 cells, MudPIT MS
[24] = biological target: T2, endogenous UFD1 (human) (UniProt Q92890); test: Flag co-IP, 293 cells, MudPIT MS
T2 sequence (looked up): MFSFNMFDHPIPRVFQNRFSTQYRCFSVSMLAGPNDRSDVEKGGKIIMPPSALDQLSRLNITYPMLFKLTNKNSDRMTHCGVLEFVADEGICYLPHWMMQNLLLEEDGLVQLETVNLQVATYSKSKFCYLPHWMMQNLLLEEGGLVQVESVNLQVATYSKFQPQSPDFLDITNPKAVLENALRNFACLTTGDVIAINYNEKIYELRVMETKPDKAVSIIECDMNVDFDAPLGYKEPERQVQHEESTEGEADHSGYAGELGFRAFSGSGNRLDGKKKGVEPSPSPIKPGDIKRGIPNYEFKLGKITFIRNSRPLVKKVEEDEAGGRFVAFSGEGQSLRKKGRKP

[25] = biological target: EDD1/UBR5 (human) (UniProt O95071); test: Flag co-IP, MudPIT MS, DMSO
[26] = biological target: Galectin-3 binding protein. LG3BP (human) (UniProt Q08380); test: Flag co-IP, MudPIT MS, DMSO
[27] = biological target: DNA damage-binding protein I. DDB1 (human) (UniProt Q16531); test: Flag co-IP, MudPIT MS, DMSO
[28] = biological target: Ubiquitin conjugation factor E4 B, UBE4B (Ufd2ortholog) (human) (UniProt O95155); test: Flag co-IP, MudPIT MS, DMSO
Chain of Ubiquitin conjugation factor E4 B, UBE4B (Ufd2ortholog) (human) (O95155 whole entry): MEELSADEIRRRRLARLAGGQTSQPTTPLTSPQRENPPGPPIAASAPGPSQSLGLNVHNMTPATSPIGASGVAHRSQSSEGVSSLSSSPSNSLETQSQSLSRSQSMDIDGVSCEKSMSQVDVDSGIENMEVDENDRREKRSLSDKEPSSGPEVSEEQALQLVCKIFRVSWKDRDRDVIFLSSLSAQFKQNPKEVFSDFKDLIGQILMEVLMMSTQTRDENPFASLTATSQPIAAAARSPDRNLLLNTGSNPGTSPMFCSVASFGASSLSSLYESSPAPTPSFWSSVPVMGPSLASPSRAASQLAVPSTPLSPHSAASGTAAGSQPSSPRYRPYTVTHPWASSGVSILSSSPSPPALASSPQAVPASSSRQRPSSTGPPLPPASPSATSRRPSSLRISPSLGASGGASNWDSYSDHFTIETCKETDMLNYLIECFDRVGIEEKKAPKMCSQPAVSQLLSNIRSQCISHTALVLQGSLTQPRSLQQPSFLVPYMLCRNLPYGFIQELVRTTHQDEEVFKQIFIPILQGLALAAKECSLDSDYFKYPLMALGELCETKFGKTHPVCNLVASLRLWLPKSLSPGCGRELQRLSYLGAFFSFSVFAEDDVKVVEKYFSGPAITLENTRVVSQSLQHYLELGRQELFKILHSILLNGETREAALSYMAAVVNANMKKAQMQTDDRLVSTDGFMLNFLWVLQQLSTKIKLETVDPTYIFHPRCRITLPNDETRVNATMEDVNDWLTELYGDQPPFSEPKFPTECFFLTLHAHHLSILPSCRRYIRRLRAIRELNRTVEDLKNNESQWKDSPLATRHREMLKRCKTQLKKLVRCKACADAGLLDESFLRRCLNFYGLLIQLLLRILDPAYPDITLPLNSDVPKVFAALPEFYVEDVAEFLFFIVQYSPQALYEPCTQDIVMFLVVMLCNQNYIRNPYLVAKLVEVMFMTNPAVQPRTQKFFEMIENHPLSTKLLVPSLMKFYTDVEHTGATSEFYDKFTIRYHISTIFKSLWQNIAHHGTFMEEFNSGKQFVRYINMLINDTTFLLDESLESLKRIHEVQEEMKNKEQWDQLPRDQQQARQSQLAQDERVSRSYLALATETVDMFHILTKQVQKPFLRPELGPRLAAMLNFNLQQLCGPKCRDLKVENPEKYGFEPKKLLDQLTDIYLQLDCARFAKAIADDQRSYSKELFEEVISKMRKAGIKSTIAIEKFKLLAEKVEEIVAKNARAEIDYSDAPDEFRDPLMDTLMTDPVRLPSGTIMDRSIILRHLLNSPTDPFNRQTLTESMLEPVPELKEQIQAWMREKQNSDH

[29] = biological target: DNA damage-binding protein I. DDB1 (human) (UniProt Q16531); test: Flag co-IP, MudPIT MS, MG132
[30] = biological target: Ubiquitin conjugation factor E4 B, UBE4B (Ufd2ortholog) (human) (UniProt O95155); test: Flag co-IP, MudPIT MS, MG132
[31] = biological target: p97-Myc; test: p97-Myc co-IP, 293 cells, MudPIT MS
[32] = biological target: endogenous p97 (human) (UniProt P55072); test: Flag co-IP, 293 cells, MudPIT MS

Flag-FAF1 (from UniProt Q9UNN5 1-650) was tested, and the abundance factor (AF) [1] was 1.6, the sequence count [1] was 9 and the spectrum count [1] was 9. The abundance factor (AF) [2] was 2, the sequence count [2] was 4 and the spectrum count [2] was 4. The abundance factor (AF) [3] was 2.7, the sequence count [3] was 2 and the spectrum count [3] was 2. The abundance factor (AF) [4] was 3.8, the sequence count [4] was 3 and the spectrum count [4] was 3. The abundance factor (AF) [5] was 8.3, the sequence count [5] was 6 and the spectrum count [5] was 6. For the same substance, the abundance factor (AF) [6] was 2.6, the sequence count [6] was 2 and the spectrum count [6] was 2. For the same substance, the abundance factor (AF) [7] was 1, the sequence count [7] was 2 and the spectrum count [7] was 2. The abundance factor (AF) [8] was 10.7, the sequence count [8] was 2 and the spectrum count [8] was 2. For the same substance, the abundance factor (AF) [9] was 9.1, the sequence count [9] was 6 and the spectrum count [9] was 8. It also gave an abundance factor (AF) [10] of 24.6, an abundance factor (AF) [11] of 10.2 and a sequence count [11] of 47. It also gave a spectrum count [11] of 56, an abundance factor (AF) [12] of 1 and a sequence count [12] of 2. The spectrum count [12] was 2, the abundance factor (AF) [13] was 8.9 and the sequence count [13] was 5. For the same substance, the spectrum count [13] was 5, the abundance factor (AF) [14] was 8.6 and the sequence count [14] was 4. The spectrum count [14] was 6, the abundance factor (AF) [15] was 3.4 and the sequence count [15] was 2. For the same substance, the spectrum count [15] was 2, the abundance factor (AF) [16] was 7.2 and the sequence count [16] was 6. The spectrum count [16] was 6, the abundance factor (AF) [17] was 11.7 and the sequence count [17] was 8. For the same substance, the spectrum count [17] was 8, the abundance factor (AF) [18] was 33.6 and the sequence count [18] was 4. The spectrum count [18] was 6, the abundance factor (AF) [19] was 8.4 and the sequence count [19] was 5. The spectrum count [19] was 7, the abundance factor (AF) [20] was 14.1 and the sequence count [20] was 12. It also gave a spectrum count [20] of 12, a sequence count [21] of 2 and a sequence coverage [21] of 4.8%. For the same substance, the spectrum count [21] was 2, the sequence count [22] was 5 and the sequence coverage [22] was 5.9%. It also gave a spectrum count [22] of 5.
Flag-UBXD3 (from UniProt Q96LJ8 1-280) was tested, and the sequence count [23] was 7, the sequence coverage [23] was 14.1% and the spectrum count [23] was 9. For the same substance, the sequence count [24] was 3, the sequence coverage [24] was 12.2% and the spectrum count [24] was 3.
With Flag-UBXD6 (from UniProt O00124 1-270) the sequence count [23] was 9, the sequence coverage [23] was 16.5% and the spectrum count [23] was 16. For the same substance, the sequence count [22] was 2, the sequence coverage [22] was 2.7% and the spectrum count [22] was 2. It also gave a sequence count [24] of 4, a sequence coverage [24] of 19.2% and a spectrum count [24] of 5.
Work on Flag-p47 (from UniProt O35987 1-370) yielded an abundance factor (AF) [25] of 0.2, a sequence count [25] of 2 and a spectrum count [25] of 2. It also gave an abundance factor (AF) [26] of 1.5, a sequence count [26] of 3 and a spectrum count [26] of 3. The abundance factor (AF) [27] was 0.5, the sequence count [27] was 2 and the spectrum count [27] was 2. For the same substance, the abundance factor (AF) [28] was 1.1, the sequence count [28] was 5 and the spectrum count [28] was 5. It also gave an abundance factor (AF) [11] of 0.2, a sequence count [11] of 2 and a spectrum count [11] of 3. The abundance factor (AF) [14] was 1.7, the sequence count [14] was 3 and the spectrum count [14] was 3. For the same substance, the abundance factor (AF) [16] was 1, the sequence count [16] was 2 and the spectrum count [16] was 2. For the same substance, the abundance factor (AF) [29] was 1, the sequence count [29] was 3 and the spectrum count [29] was 3. The abundance factor (AF) [30] was 1.4, the sequence count [30] was 5 and the spectrum count [30] was 5. For the same substance, the sequence count [21] was 27, the sequence coverage [21] was 42.9% and the spectrum count [21] was 38.
Flag-UBXD1 (from UniProt Q9BZV1 1-441) showed a sequence count [21] of 3, a sequence coverage [21] of 7.5% and a spectrum count [21] of 3. It also gave a sequence count [22] of 2, a sequence coverage [22] of 2.5% and a spectrum count [22] of 2.
Substance “endogenous FAF1 (from UniProt Q9UNN5 1-650)” has a sequence count [31] of 7, a sequence coverage [31] of 8.2% and a spectrum count [31] of 11.
Substance Flag-ASPL (from UniProt Q9BZE9 1-553) has a sequence count [21] of 10, a sequence coverage [21] of 22.8% and a spectrum count [21] of 10.
Substance Flag-UBXD5 has a sequence count [23] of 2, a sequence coverage [23] of 5.2% and a spectrum count [23] of 3. For the same substance, the sequence count [21] was 6, the sequence coverage [21] was 11.6% and the spectrum count [21] was 6. The sequence count [32] was 124, the sequence coverage [32] was 75.5% and the spectrum count [32] was 783. For the same substance, the sequence count [22] was 20, the sequence coverage [22] was 27.5% and the spectrum count [22] was 25.
